Experimental data taken from paper PMC8857485, “Prostate secretory protein 94 inhibits sterol binding and export by the mammalian CAP protein CRISP2 in a calcium-sensitive manner” (The Journal of Biological Chemistry, 2022).

Key:
[1] = molecular target: T1, CRISP2 L98G, His-tagged (human, UniProt P16562 22-243, L98G, RED-tris-NTA fluorescent label on the His tag); experiment: MST
T1 sequence: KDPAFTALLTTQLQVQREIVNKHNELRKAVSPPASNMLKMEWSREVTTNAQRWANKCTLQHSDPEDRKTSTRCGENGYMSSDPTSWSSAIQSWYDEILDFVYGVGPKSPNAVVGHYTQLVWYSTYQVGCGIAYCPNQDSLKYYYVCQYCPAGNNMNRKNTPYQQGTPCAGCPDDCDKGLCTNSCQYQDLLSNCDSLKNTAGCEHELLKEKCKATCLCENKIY

[2] = molecular target: T2, CRISP2 Y99P, His-tagged (human, UniProt P16562 22-243, Y99P, RED-tris-NTA fluorescent label on the His tag); experiment: MST
T2 sequence: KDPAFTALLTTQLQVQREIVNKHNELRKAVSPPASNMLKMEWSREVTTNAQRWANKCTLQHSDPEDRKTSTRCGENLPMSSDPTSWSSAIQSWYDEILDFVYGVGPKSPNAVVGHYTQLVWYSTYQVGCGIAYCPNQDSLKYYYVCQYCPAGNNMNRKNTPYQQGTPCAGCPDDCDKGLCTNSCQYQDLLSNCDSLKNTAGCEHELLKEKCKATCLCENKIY

[3] = molecular target: T3, CRISP2 N97P, His-tagged (human, UniProt P16562 22-243, N97P, RED-tris-NTA fluorescent label on the His tag); experiment: MST
T3 sequence: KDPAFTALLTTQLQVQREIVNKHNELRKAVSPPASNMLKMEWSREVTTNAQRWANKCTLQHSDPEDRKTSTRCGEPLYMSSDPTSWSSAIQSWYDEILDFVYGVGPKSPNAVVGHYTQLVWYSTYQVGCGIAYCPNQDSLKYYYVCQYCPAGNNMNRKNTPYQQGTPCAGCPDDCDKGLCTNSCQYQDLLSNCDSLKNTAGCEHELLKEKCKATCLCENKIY

[4] = molecular target: T4, CRISP3 (cysteine-rich secretory protein 3), C-terminal polyhistidine tag (human, UniProt P54108 21-245, RED-tris-NTA fluorescent label on the His tag); experiment: MST; 100 nM CAP protein labelled with RED-tris-NTA on its His tag, serial dilution of unlabeled PSP94 or PSP94^F24G; 20 mM Tris pH 7.5, 30 mM NaCl, 0.05% Triton X-100; Monolith NT.115, 80% laser power; triplicates; conditions: both partners purified
T4 construct: CRISP3, human; pET22b; source: E. coli, inclusion bodies, purified under denaturing conditions, renatured (nickel-NTA); not shown: polyhistidine, C-terminal, kept
T4 sequence (looked up): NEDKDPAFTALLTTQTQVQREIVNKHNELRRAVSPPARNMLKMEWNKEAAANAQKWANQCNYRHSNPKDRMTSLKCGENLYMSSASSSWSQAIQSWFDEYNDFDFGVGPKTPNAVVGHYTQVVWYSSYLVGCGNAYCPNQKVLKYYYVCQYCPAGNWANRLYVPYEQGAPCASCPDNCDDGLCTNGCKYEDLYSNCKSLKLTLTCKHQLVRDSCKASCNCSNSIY

[5] = molecular target: T5, CRISP2 (cysteine-rich secretory protein 2), C-terminal polyhistidine tag (human, UniProt P16562 22-243, RED-tris-NTA fluorescent label on the His tag); experiment: as above; conditions: both partners purified
T5 construct: also called Tpx-1; testis-specific protein 1; source: E. coli BL21, purified (nickel-NTA); not shown: polyhistidine, C-terminal, kept
T5 sequence (looked up): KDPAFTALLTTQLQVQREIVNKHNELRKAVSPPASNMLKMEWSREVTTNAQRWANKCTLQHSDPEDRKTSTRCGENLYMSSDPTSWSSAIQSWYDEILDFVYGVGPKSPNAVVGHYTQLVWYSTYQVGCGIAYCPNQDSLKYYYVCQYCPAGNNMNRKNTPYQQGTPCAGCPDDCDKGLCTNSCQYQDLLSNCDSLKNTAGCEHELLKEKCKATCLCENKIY

[6] = molecular target: T6, CRISP2 N97P, His-tagged (human, UniProt P16562 22-243, N97P, RED-tris-NTA fluorescent label on the His tag); experiment: as above; conditions: both partners purified
T6 construct: CRISP2 with the point mutation N97P in the β2-strand; Same construct as m4 with the mutation; source: E. coli, purified; not shown: polyhistidine, C-terminal, kept
T6 sequence (looked up): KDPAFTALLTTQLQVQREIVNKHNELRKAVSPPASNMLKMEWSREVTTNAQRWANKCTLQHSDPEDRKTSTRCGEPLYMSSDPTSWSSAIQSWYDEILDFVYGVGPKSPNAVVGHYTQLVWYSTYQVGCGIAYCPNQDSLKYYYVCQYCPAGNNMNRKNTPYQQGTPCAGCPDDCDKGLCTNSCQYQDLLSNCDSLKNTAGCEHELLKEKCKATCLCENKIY

[7] = molecular target: T7, CRISP2 Y99P, His-tagged (human, UniProt P16562 22-243, Y99P, RED-tris-NTA fluorescent label on the His tag); experiment: as above; conditions: both partners purified
T7 construct: CRISP2 with the point mutation Y99P in the β2-strand; Same construct as m4 with the mutation; source: E. coli, purified; not shown: polyhistidine, C-terminal, kept
T7 sequence (looked up): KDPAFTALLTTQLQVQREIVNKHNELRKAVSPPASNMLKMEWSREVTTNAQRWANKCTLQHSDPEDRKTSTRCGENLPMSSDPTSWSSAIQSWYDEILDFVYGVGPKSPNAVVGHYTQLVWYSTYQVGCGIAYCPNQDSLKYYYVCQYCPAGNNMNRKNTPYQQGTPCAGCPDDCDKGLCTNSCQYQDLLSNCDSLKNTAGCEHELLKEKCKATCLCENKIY

[8] = molecular target: T8, CRISP2 L98G, His-tagged (human, UniProt P16562 22-243, L98G, RED-tris-NTA fluorescent label on the His tag); experiment: as above; conditions: both partners purified
T8 construct: CRISP2 with the point mutation L98G in the β2-strand; Same construct as m4 with the mutation; source: E. coli, purified; not shown: polyhistidine, C-terminal, kept
T8 sequence (looked up): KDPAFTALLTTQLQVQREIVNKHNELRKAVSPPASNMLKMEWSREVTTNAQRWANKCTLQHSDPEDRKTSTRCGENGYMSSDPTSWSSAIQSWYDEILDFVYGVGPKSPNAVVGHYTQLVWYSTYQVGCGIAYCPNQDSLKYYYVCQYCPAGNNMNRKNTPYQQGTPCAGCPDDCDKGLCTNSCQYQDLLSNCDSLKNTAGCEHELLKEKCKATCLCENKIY

[9] = molecular target: T9, Pry1 (pathogen related in yeast 1), C-terminal polyhistidine tag (S. cerevisiae, UniProt P47032 20-299, RED-tris-NTA fluorescent label on the His tag); experiment: as above; conditions: both partners purified
T9 construct: Pry1, S. cerevisiae CAP family member; source: E. coli BL21, purified (nickel-NTA); not shown: polyhistidine, C-terminal, kept
T9 sequence (looked up): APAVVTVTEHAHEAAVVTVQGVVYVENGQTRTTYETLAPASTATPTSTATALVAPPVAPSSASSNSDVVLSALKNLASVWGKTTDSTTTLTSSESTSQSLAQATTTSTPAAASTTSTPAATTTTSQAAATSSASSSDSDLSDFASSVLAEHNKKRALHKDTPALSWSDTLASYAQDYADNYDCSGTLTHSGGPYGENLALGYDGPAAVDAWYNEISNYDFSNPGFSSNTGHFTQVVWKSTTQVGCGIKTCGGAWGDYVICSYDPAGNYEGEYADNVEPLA

[10] = system: fatty acid export by CAP family members (CRISP2); experiment: Fatty acid export assay in yeast; type: cell-based, Saccharomyces cerevisiae; conditions: co-expression with CRISP2 in faa1Δ faa4Δ pry1Δ pry3Δ yeast
Description: We and others have previously shown that CAP proteins can bind eicosanoids and free fatty acids at a second lipid-binding site that is independent of the sterol-binding site ([30], [31]). To test whether PSP94 affects fatty acid binding by the CAP domain, we examined whether coexpression of PSP94 with CRISP2 affects fatty acid export from mutant cells lacking the two acyl-CoA synthases Faa1 and Faa4 and two of the three yeast CAP domain proteins, Pry1 and Pry3.
To analyze the CRISP2-dependent export of fatty acids, cells were grown overnight and the supernatant of 5 A600nm units of yeast cells was collected and dried in a freeze dryer. Fatty acid methyl esters (FAMEs) were produced by incubating the dried fractions at 85 °C for 45 min in 1 ml of methanol–sulfuric acid (5% v/v) supplemented with butylated hydroxytoluene (0.01% w/v). The FAMEs were extracted in a mixture containing 1.5 ml of NaCl (0.9% w/v) and 2 ml of hexane, and the upper phase was collected. FAMEs were then resuspended in heptane and separated on an Agilent 7890A gas chromatograph equipped with a DB-23 capillary column (30 m × 0.25 mm × 0.25 μm) (Agilent Technologies) and quantified relative to an internal standard (C17:0, 10 μg) as described ([31]).

[11] = molecular target: T10, CRISP2^N97P L98G (Homo sapiens, UniProt P16562, L98G/N97P); experiment: MST binding to CRISP2 double mutant N97P L98G; set-up: species or system mammalian; conditions: read-out: Kd, protein-protein interaction with CRISP2^N97P L98G
T10 construct: made in house; host or cells: E. coli
T10 sequence (P16562 22-243 N97P/L98G): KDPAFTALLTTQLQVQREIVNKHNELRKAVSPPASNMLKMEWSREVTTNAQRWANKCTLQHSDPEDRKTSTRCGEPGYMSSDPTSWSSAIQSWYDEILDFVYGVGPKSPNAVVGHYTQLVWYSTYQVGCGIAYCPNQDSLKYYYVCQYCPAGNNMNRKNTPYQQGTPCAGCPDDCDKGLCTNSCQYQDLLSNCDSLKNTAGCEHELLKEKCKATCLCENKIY
Experimental: Next, we generated all three double mutant combinations of CRISP2: N97P L98G, N97P Y99P, and L98G Y99P. These three double mutant versions of CRISP2 were again expressed as His-tagged proteins in E. coli and purified, and their capacity to bind sterols in the presence or absence of PSP94 was assessed by MST. […] The capacity of the CRISP2^L98G Y99P double mutant to bind sterols even in the presence of PSP94 was confirmed by the in vivo sterol export assay (Fig. 6, A and B). When expressed in yeast cells, the CRISP2^L98G Y99P double mutant was stably expressed and secreted as monitored by Western blotting (Fig. 6C).
MST experiments were performed to assess protein–protein, protein–lipid, and protein–calcium interactions using a Monolith NT.115 (Nanotemper Technologies). Proteins were labeled using the RED-tris-NTA His tag protein labeling kit. Labeled CAP proteins, 100 nM, were mixed with a serial dilution of unlabeled PSP94, PSP9^F24G, cholesterol sulfate, or calcium chloride, prepared in binding buffer (20 mM Tris pH 7.5, 30 mM NaCl, 0.05% Triton X-100). Samples were loaded into MST standard capillaries, and MST measurements were performed using an 80% laser power setting. The dissociation constant Kd was obtained by plotting the normalized fluorescence (Fnorm) against the logarithm of ligand concentration. […]

Molecule	Kd [1] [nM]	Kd [2] [nM]	Kd [3] [nM]	binding result [4]	Kd [5] [nM]	binding result [6]	binding result [7]	binding result [8]	Kd [9] [nM]	effect on fatty acid export [10]	Kd [11] [nM]
prostate secretory protein of 94 amino acids (PSP94), C-terminal polyhistidine tag (natural protein, human, UniProt P08118 21-114, looked up, PSP94 (β-microseminoprotein), human; also called β-microseminoprotein; MSP; source: E. coli BL21, purified (nickel-NTA)) SCYFIPNEGVPGDSTRKCMDLKGNKHPINSEWQTDNCETCTCYETEISCCTLVSTPVGYDKDNCQRIFKKEDCKYIVVEKKDPKKTCSVSEWII	8.6	9.3	8.1	binds	6	binds	binds	binds	70		
PSP94: prostate secretory protein of 94 amino acids, His-tagged, purified from E. coli; or expressed in yeast (protein, left off: polyhistidine, C-terminal, state not stated, prostate secretory protein of 94 amino acids, His-tagged, purified from E. coli; or expressed in yeast) SCYFIPNEGVPGDSTRKCMDLKGNKHPINSEWQTDNCETCTCYETEISCCTLVSTPVGYDKDNCQRIFKKEDCKYIVVEKKDPKKTCSVSEWII										does not affect fatty acid binding and export	4 ± 1.8
